For assay [1], the target named is CD16-F176V-V196_S197insP-V197_T198insP (Homo sapiens (Human)) (UniProt P08637). The assay is described as follows: cell-based or functional assay.
For assay [2], the target named is CD16-WT (Homo sapiens (Human)) (UniProt P08637). Description: cell-based or functional assay.

We go through 1 substance from patent publication US20250257116A1.

On to “metalloproteinase 17 (ADAM17) (from UniProt P78536 215-824) (enzyme)”, for which the values for the decrease of CD16 expression on iNK cells after adding Raji cells and Rituximab in assay [1] and in assay [2] were 9% and 40%, respectively.
